Data as given in publication PMC11672753.

Sequence of S15-HDEL (human) (heavy, as listed by the source, chain 1 of 2): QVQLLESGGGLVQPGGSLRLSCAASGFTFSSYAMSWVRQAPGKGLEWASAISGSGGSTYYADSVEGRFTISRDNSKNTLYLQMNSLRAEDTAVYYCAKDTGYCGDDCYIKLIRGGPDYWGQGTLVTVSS
Sequence of S15-HDEL (human) (light, as listed by the source, chain 2 of 2): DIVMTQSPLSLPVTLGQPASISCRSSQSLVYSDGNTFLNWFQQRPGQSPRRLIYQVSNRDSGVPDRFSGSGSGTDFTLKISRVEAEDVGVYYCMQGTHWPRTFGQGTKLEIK
Sequence of S15-FX (human) (heavy, as listed by the source, chain 1 of 2): as the sequence (heavy, as listed by the source, chain 1 of 2) above
Sequence of S15-FX (human) (light, as listed by the source, chain 2 of 2): as the sequence (light, as listed by the source, chain 2 of 2) above

FcγRIIIa-dimer, biotinylated (from UniProt P08637 17-254) (receptor)
NK cell activation (CD107 and IFNγ expression) by antigen-bound antibody, against the WT plant antibody (S15-HDEL (human)): 3 fold
NK cell activation (CD107 and IFNγ expression) by antigen-bound antibody, against the WT plant antibody (S15-FX (human)): 3 fold
